In patent publication US6120991:

Experiments:
integrin α3 β1 (human) = integrin α3 β1 (human) (UniProt P26006)
integrin α6 β4 (human) = integrin α6 β4 (human) (UniProt P23229)

Substance “epiligrin-ECM^t (epiligrin left on the substratum after HFK were detached from their ECM with trypsin) (ligand)” has a % adherent HFF control cells on epiligrin-ECM^t at 37° C. (time course) (% adherent cells) (integrin α3 β1 (human)) of 57 and a % adherent 51Cr-labeled HFK cells on epiligrin-ECM^t at 4° C. (time course) (% adherent cells) (integrin α6 β4 (human)) of 28.
